{
  "source": "patent US20200199209A1",
  "about": "(JIANGSU HENGRUI MEDICINE, published 2020)",
  "binders": {"B1": {"name": "murine anti-human SOST monoclonal antibody Ab-1 (antibody, V domains shown)", "VH": "EVQLQQSGPELVKPGTSVKIPCQTSGYTFTDYNLDWLKQRPGESLEWIGDIDPNNGDILYNQKFRDKATLTVDTSSNTAYLELRSLTSEDTAVYYCARRWAYYFDYWGQGTTLTISS", "VL": "NIVMTQTPKLLFVSAGDRITITCKASQSVSNDVAWYQQKPGQSPKLLIYYTSNRFTGVPDRFTGSGYGTDFTLTINTVQAEDLAVYFCQQDYSSPVTFGAGTKLELK", "notes": "Murine antibody from the hybridoma cell strain Ab-1; also called murine Ab-1"}},
  "key": {"[1]": {"biological_target": "T1, human sclerostin (SOST) (human, UniProt Q9BQB4 24-213)", "T1 construct": "also called human SOST; h-SOST", "T1 sequence (looked up)": "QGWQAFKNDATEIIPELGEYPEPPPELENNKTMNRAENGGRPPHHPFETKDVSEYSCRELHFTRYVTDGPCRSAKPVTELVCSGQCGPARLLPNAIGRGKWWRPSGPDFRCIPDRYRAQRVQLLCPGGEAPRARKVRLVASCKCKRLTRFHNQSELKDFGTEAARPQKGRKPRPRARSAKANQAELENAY", "assay": "ELISA binding to human sclerostin (Test Example 1)"}, "[2]": {"biological_target": "T1, human sclerostin (SOST)", "assay": "blocking of human SOST binding to human LRP-6 (Test Example 2)"}},
  "data": [
    {"binder": "B1", "values": [
      {"measurement": "EC50", "setting": "[1]", "value": 0.701, "unit": "nM"},
      {"measurement": "IC50", "setting": "[2]", "value": 9.91, "unit": "nM"}
    ]}
  ]
}
